{"source": "patent US20160222130A1", "about": "(Astellas, published 2016)", "binders": {"B1": {"name": "fully human 2-16A2-Fab (Fab, V domains shown)", "VH": "EVQLVESGGGLVQPGGSLRLSCAASGFTFDDYAMHWVRQAPGKGLEWVAGISWNSGSIVYADSVKGRFTISRDNSKNTLYLQMNSLRAEDTAVYYCAKDIREQLVEDAFDIWGQGTLVTVSS", "VL": "DIQMTQSPSSLSASVGDRVTITCRSSQSLLHSHRYNYLDWYQQKPGKAPKLLIYLGSNRASGVPSRFSGSGSGTDFTLTISSVQPEDFATYYCMQTLQTPLTFGQGTKVEIKR", "notes": "also called Fab of the fully human 2-16A2"}}, "assay_in_all_cases": "SPR (Biacore T200); Tie2-Fc captured on anti-human IgG (Fc), Fab at 50 nM; mean of 3", "key": {"[1]": {"target": "T1, Human Tie2 (1-452)g2-Fc (human, UniProt Q02763 23-452)", "T1 construct": "range 1-452", "T1 sequence (Q02763 other isoform, or with tags, fused parts or gaps limits assumed, form in doubt)": "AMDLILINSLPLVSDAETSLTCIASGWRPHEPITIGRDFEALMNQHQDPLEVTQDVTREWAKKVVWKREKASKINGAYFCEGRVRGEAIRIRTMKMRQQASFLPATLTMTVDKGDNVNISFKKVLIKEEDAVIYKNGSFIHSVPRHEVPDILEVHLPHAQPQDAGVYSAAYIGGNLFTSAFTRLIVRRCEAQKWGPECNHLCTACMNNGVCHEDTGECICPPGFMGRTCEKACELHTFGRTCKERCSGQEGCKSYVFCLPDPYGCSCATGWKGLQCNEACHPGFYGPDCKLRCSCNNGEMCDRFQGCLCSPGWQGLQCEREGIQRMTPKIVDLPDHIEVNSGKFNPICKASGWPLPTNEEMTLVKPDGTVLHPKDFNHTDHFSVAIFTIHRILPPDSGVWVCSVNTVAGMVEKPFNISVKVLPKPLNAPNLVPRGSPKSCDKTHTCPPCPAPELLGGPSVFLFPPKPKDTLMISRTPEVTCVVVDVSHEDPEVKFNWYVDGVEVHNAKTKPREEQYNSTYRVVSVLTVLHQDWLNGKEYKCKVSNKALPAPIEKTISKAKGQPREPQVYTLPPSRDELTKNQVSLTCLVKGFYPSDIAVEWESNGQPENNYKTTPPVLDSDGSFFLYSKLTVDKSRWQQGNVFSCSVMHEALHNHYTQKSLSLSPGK", "method": "(§1) SPR analysis was carried out in order to evaluate the binding activity of the human Tie2 (1-452)-Fc chimera protein and 23 mutant proteins thereof to the fully human 2-16A2-Fab.\n(§2) For SPR analysis, Biacore T200 (GE Healthcare) was used. An anti-human IgG (Fc) antibody (Human Antibody Capture Kit, GE Healthcare) was fixed onto a CM5 sensor chip. The human Tie2 (1-452)-Fc chimeric protein and 23 mutant proteins thereof, diluted with HBS-EP (GE Healthcare) at 5 μg/mL, were each allowed for immobilization, and the capture-amount was measured. Thereafter, the fully human 2-16A2-Fab diluted with HBS-EP to 50 nM, the binding amount thereof to the human Tie2 (1-452)-Fc chimeric protein and 23 mutant proteins thereof were measured. Further, by dividing the binding amount with the capture-amount, the binding amount of the antibody in the unit immobilized antigen (hereinafter referred to as a binding ratio) was calculated. The arithmetic mean of three experiments and the relative value of the binding ratio of each mutant proteins when the binding ratio of the human Tie2 (1-452)-Fc chimeric protein was taken as 100% are shown in Table 7."}, "[2]": {"target": "T2, human Tie2 (1-452)-Fc chimeric protein (human, UniProt Q02763 23-452)", "T2 construct": "range 1-452; The stated range 1-452 begins at residue 1 of the precursor", "T2 sequence (Q02763 other isoform, or with tags, fused parts or gaps mutant limits assumed, form in doubt)": "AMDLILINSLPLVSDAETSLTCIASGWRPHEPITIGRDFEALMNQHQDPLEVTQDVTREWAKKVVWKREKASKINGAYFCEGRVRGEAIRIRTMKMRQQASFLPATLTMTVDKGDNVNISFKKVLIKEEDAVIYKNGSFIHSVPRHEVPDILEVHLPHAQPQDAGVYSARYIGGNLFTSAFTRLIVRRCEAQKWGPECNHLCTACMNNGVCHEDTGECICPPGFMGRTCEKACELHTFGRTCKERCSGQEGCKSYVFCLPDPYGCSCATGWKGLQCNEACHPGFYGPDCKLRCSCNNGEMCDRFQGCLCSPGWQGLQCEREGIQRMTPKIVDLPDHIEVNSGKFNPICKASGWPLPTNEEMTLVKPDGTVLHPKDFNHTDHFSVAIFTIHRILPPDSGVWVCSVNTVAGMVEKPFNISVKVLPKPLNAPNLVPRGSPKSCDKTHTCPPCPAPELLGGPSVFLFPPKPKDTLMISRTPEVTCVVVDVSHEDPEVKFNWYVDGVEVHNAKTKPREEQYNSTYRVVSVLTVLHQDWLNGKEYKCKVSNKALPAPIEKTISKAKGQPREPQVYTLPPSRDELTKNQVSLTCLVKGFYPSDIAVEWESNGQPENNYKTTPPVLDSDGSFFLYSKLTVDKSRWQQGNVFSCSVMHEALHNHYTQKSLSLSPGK", "method": "as §1, §2"}, "[3]": {"target": "T3, Human Tie2 (1-452)A5-Fc (human, UniProt Q02763 23-452)", "T3 construct": "range 1-452", "T3 sequence (Q02763 other isoform, or with tags, fused parts or gaps limits assumed, form in doubt)": "as the sequence (Q02763 other isoform, or with tags, fused parts or gaps mutant limits assumed, form in doubt) above, with S142A counted along it", "method": "as §1, §2"}, "[4]": {"target": "T4, Human Tie2 (1-452)A4-Fc (human, UniProt Q02763 23-452)", "T4 construct": "range 1-452", "T4 sequence (Q02763 other isoform, or with tags, fused parts or gaps limits assumed, form in doubt)": "as the sequence (Q02763 other isoform, or with tags, fused parts or gaps mutant limits assumed, form in doubt) above, with F139A counted along it", "method": "as §1, §2"}, "[5]": {"target": "T5, Human Tie2 (1-452)r6-Fc (human, UniProt Q02763 23-452)", "T5 construct": "range 1-452", "T5 sequence (Q02763 other isoform, or with tags, fused parts or gaps limits assumed, form in doubt)": "as the sequence (Q02763 other isoform, or with tags, fused parts or gaps mutant limits assumed, form in doubt) above, with D150A counted along it", "method": "as §1, §2"}, "[6]": {"target": "T6, Human Tie2 (1-452)g3-Fc (human, UniProt Q02763 23-452)", "T6 construct": "range 1-452", "T6 sequence (Q02763 other isoform, or with tags, fused parts or gaps limits assumed, form in doubt)": "as the sequence (Q02763 other isoform, or with tags, fused parts or gaps mutant limits assumed, form in doubt) above, with I172A counted along it", "method": "as §1, §2"}, "[7]": {"target": "T7, Human Tie2 (1-452)g4-Fc (human, UniProt Q02763 23-452)", "T7 construct": "range 1-452", "T7 sequence (Q02763 other isoform, or with tags, fused parts or gaps limits assumed, form in doubt)": "as the sequence (Q02763 other isoform, or with tags, fused parts or gaps mutant limits assumed, form in doubt) above, with G173E counted along it", "method": "as §1, §2"}, "[8]": {"target": "T8, Human Tie2 (1-452)g5-Fc (human, UniProt Q02763 23-452)", "T8 construct": "range 1-452", "T8 sequence (Q02763 other isoform, or with tags, fused parts or gaps limits assumed, form in doubt)": "as the sequence (Q02763 other isoform, or with tags, fused parts or gaps mutant limits assumed, form in doubt) above, with N175A counted along it", "method": "as §1, §2"}, "[9]": {"target": "T9, Human Tie2 (1-452)A3-Fc (human, UniProt Q02763 23-452)", "T9 construct": "range 1-452", "T9 sequence (Q02763 other isoform, or with tags, fused parts or gaps limits assumed, form in doubt)": "as the sequence (Q02763 other isoform, or with tags, fused parts or gaps mutant limits assumed, form in doubt) above, with Y134A counted along it", "method": "as §1, §2"}, "[10]": {"target": "T10, Human Tie2 (1-452)A1-Fc (human, UniProt Q02763 23-452)", "T10 construct": "range 1-452", "T10 sequence (Q02763 other isoform, or with tags, fused parts or gaps limits assumed, form in doubt)": "as the sequence (Q02763 other isoform, or with tags, fused parts or gaps mutant limits assumed, form in doubt) above, with E129A counted along it", "method": "as §1, §2"}, "[11]": {"target": "T11, Human Tie2 (1-452)r7-Fc (human, UniProt Q02763 23-452)", "T11 construct": "range 1-452", "T11 sequence (Q02763 other isoform, or with tags, fused parts or gaps limits assumed, form in doubt)": "as the sequence (Q02763 other isoform, or with tags, fused parts or gaps mutant limits assumed, form in doubt) above, with I151A counted along it", "method": "as §1, §2"}, "[12]": {"target": "T12, Human Tie2 (1-452)m3-Fc (human, UniProt Q02763 23-452)", "T12 construct": "range 1-452", "T12 sequence (Q02763 other isoform, or with tags, fused parts or gaps limits assumed, form in doubt)": "as the sequence (Q02763 other isoform, or with tags, fused parts or gaps mutant limits assumed, form in doubt) above, with S72A, K73A counted along it", "method": "as §1, §2"}, "[13]": {"target": "T13, Human Tie2 (1-452)g6-Fc (human, UniProt Q02763 23-452)", "T13 construct": "range 1-452", "T13 sequence (Q02763 other isoform, or with tags, fused parts or gaps limits assumed, form in doubt)": "as the sequence (Q02763 other isoform, or with tags, fused parts or gaps mutant limits assumed, form in doubt) above, with L176A counted along it", "method": "as §1, §2"}, "[14]": {"target": "T14, Human Tie2 (1-452)y1-Fc (human, UniProt Q02763 23-452)", "T14 construct": "range 1-452", "T14 sequence (Q02763 other isoform, or with tags, fused parts or gaps limits assumed, form in doubt)": "as the sequence (Q02763 other isoform, or with tags, fused parts or gaps mutant limits assumed, form in doubt) above, with D15A counted along it", "method": "as §1, §2"}, "[15]": {"target": "T15, Human Tie2 (1-452)m1-Fc (human, UniProt Q02763 23-452)", "T15 construct": "range 1-452", "T15 sequence (Q02763 other isoform, or with tags, fused parts or gaps limits assumed, form in doubt)": "as the sequence (Q02763 other isoform, or with tags, fused parts or gaps mutant limits assumed, form in doubt) above, with W60A, K62A counted along it", "method": "as §1, §2"}, "[16]": {"target": "T16, Human Tie2 (1-452)g1-Fc (human, UniProt Q02763 23-452)", "T16 construct": "range 1-452", "T16 sequence (Q02763 other isoform, or with tags, fused parts or gaps limits assumed, form in doubt)": "as the sequence (Q02763 other isoform, or with tags, fused parts or gaps mutant limits assumed, form in doubt) above, with I172A, N175A, L176A counted along it", "method": "as §1, §2"}}, "data": [{"binder": "B1", "values": [{"measurement": "Binding ratio", "setting": "[1]", "result": 0.03}, {"measurement": "Relative value (%) of binding ratio (human Tie2 (1-452)-Fc chimeric protein = 100%)", "setting": "[1]", "result": 9, "unit": "%"}, {"measurement": "Binding ratio", "setting": "[2]", "result": 0.29}, {"measurement": "Relative value (%) of binding ratio (human Tie2 (1-452)-Fc chimeric protein = 100%)", "setting": "[2]", "result": 100, "unit": "%"}, {"measurement": "Binding ratio", "setting": "[3]", "result": 0.39}, {"measurement": "Relative value (%) of binding ratio (human Tie2 (1-452)-Fc chimeric protein = 100%)", "setting": "[3]", "result": 135, "unit": "%"}, {"measurement": "Binding ratio", "setting": "[4]", "result": 0.13}, {"measurement": "Relative value (%) of binding ratio (human Tie2 (1-452)-Fc chimeric protein = 100%)", "setting": "[4]", "result": 44, "unit": "%"}, {"measurement": "Binding ratio", "setting": "[5]", "result": 0.29}, {"measurement": "Relative value (%) of binding ratio (human Tie2 (1-452)-Fc chimeric protein = 100%)", "setting": "[5]", "result": 100, "unit": "%"}, {"measurement": "Binding ratio", "setting": "[6]", "result": 0.06}, {"measurement": "Relative value (%) of binding ratio (human Tie2 (1-452)-Fc chimeric protein = 100%)", "setting": "[6]", "result": 23, "unit": "%"}, {"measurement": "Binding ratio", "setting": "[7]", "result": 0.02}, {"measurement": "Relative value (%) of binding ratio (human Tie2 (1-452)-Fc chimeric protein = 100%)", "setting": "[7]", "result": 7, "unit": "%"}, {"measurement": "Binding ratio", "setting": "[8]", "result": 0.03}, {"measurement": "Relative value (%) of binding ratio (human Tie2 (1-452)-Fc chimeric protein = 100%)", "setting": "[8]", "result": 9, "unit": "%"}, {"measurement": "Binding ratio", "setting": "[9]", "result": 0.17}, {"measurement": "Relative value (%) of binding ratio (human Tie2 (1-452)-Fc chimeric protein = 100%)", "setting": "[9]", "result": 59, "unit": "%"}, {"measurement": "Binding ratio", "setting": "[10]", "result": 0.1}, {"measurement": "Relative value (%) of binding ratio (human Tie2 (1-452)-Fc chimeric protein = 100%)", "setting": "[10]", "result": 34, "unit": "%"}, {"measurement": "Binding ratio", "setting": "[11]", "result": 0.3}, {"measurement": "Relative value (%) of binding ratio (human Tie2 (1-452)-Fc chimeric protein = 100%)", "setting": "[11]", "result": 106, "unit": "%"}, {"measurement": "Binding ratio", "setting": "[12]", "result": 0.04}, {"measurement": "Relative value (%) of binding ratio (human Tie2 (1-452)-Fc chimeric protein = 100%)", "setting": "[12]", "result": 12, "unit": "%"}, {"measurement": "Binding ratio", "setting": "[13]", "result": 0.38}, {"measurement": "Relative value (%) of binding ratio (human Tie2 (1-452)-Fc chimeric protein = 100%)", "setting": "[13]", "result": 131, "unit": "%"}, {"measurement": "Binding ratio", "setting": "[14]", "result": 0.25}, {"measurement": "Relative value (%) of binding ratio (human Tie2 (1-452)-Fc chimeric protein = 100%)", "setting": "[14]", "result": 87, "unit": "%"}, {"measurement": "Binding ratio", "setting": "[15]", "result": 0.31}, {"measurement": "Relative value (%) of binding ratio (human Tie2 (1-452)-Fc chimeric protein = 100%)", "setting": "[15]", "result": 107, "unit": "%"}, {"measurement": "Binding ratio", "setting": "[16]", "result": 0}, {"measurement": "Relative value (%) of binding ratio (human Tie2 (1-452)-Fc chimeric protein = 100%)", "setting": "[16]", "result": 0, "unit": "%"}]}]}
